From US20220363752A1 (VERSEAU THERAPEUTICS, published 2022)
Primed or numbered codes have the meaning given here. Biotin′ = not defined here

Assays:
[1] = biological target: T1, LRRC25(21-40) biotin peptide (human, not fully specified; N-terminal NH2; C-terminal GGK-Biotin; native Cys changed to Ser); assay: peptide ELISA
T1 peptide: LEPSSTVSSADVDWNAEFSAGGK
Procedure: (§1) To establish if functional chimera anti-LRRC25 antibodies recognize particular regions of LRRC25, ELISA experiments were performed using 10 plate-immobilized 16- to 20-mer overlapping LRRC25(ECD) biotin peptides (Table 7). Biotinylated human LRRC25-His served as a positive control. A typical ELISA was performed by coating overnight at 4° C., 3 ug/mL/25 ul per well of streptavidin (Jackson Immunoresearch, Cat. #016-030-084) in PBS in half-area high binding microtiter wells (Corning Cat. #3690). […] Biotin peptides or biotinylated human LRRC25-His protein were added in duplicate (2 ug/mL/25 ul per well) in assay buffer (blocking buffer containing 0.05% tween 20) and the plate incubated for 45 min at 37° C. The plate was washed as before, 20 nM anti-LRRC25 antibodies in assay buffer added in duplicate into appropriate wells, and the plate incubated as before. The plate was washed and HRP-conjugated secondary antibody in assay buffer added [25 ul per well; goat anti-human IgG (Jackson Immunoresearch, Cat. #715-035-150)], and incubated as before. Antibody bound to plate-immobilized peptide(s) or protein was determined at A450 nm using HRP substrate (3,3′,5,5′-tetramethylbenzidine (TMB); eBioscience; Cat. #00-4201-56); 100 μl/well).

[2] = biological target: T2, LRRC25(36-55) biotin peptide (human, not fully specified; N-terminal NH2; C-terminal GGK-Biotin; native Cys changed to Ser); assay: peptide ELISA
T2 peptide: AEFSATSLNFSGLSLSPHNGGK
Procedure: as §1

[3] = biological target: T3, LRRC25(51-69) biotin peptide (human, not fully specified; N-terminal acetyl; C-terminal GGK-Biotin); assay: peptide ELISA
T3 peptide: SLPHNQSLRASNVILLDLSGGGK
Procedure: as §1

[4] = biological target: T4, LRRC25(66-85) biotin peptide (human, not fully specified; N-terminal acetyl; C-terminal GGK-Biotin); assay: peptide ELISA
T4 peptide: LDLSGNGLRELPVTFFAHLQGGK
Procedure: as §1

[5] = biological target: T5, LRRC25(81-100) biotin peptide (human, not fully specified; N-terminal acetyl; C-terminal GGK-Biotin); assay: peptide ELISA
T5 peptide: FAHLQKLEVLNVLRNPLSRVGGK
Procedure: as §1

[6] = biological target: T6, LRRC25(111-130) biotin peptide (human, not fully specified; N-terminal acetyl; C-terminal GGK-Biotin; native Cys changed to Ser); assay: peptide ELISA
T6 peptide: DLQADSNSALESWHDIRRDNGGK
Procedure: as §1

[7] = biological target: T7, LRRC25(126-145) biotin peptide (human, not fully specified; N-terminal acetyl; C-terminal GGK-Biotin; native Cys changed to Ser); assay: peptide ELISA
T7 peptide: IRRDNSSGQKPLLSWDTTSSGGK
Procedure: as §1

[8] = biological target: T8, LRRC25(141-159) biotin peptide (human, not fully specified; N-terminal acetyl; C-terminal GGK-Biotin; native Cys changed to Ser); assay: peptide ELISA
T8 peptide: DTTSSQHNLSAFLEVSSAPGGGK
Procedure: as §1

[9] = biological target: T9, LRRC25(150-165) biotin peptide (human); assay: peptide ELISA
T9 peptide: Ac-SAFLEVSSAPGLASATGG-{Biotin′}
Procedure: as §1

[10] = biological target: T10, His-tagged human LRRC25 extracellular domain protein, human LRRC25-His (human, UniProt Q8N386 21-165); assay: ELISA, plate-immobilized antigen
T10 construct: The entry holds the extracellular domain, a GSG linker and the His tag; also called LRRC25(ECD)-HIS
T10 sequence (Q8N386 other isoform, or with tags, fused parts or gaps): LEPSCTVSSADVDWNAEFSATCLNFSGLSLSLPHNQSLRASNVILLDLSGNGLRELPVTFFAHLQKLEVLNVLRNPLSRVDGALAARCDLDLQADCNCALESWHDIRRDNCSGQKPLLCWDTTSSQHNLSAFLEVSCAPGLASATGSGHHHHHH
Procedure: (§2) To establish the relative binding strengths of anti-LRRC25 antibodies against human LRRC25, and their cross-reactivity with cynomolgus monkey LRRC25, antibody binding curve analyses were performed and EC50 values against plate-immobilized recombinant human and cyno LRRC25 proteins were determined.
(§3) A typical ELISA was performed by coating overnight in PBS, pH 7.4, at 4° C. in high binding microtiter wells with 1 ug/mL/100 ul per well of human LRRC25-His or cyno LRRC25-His. An anti-human LRRC25 antibody (2A3, LS Bio, LS-C174039-100) and anti-HIS-HRP (Miltenyi Biotec; 130-092-783) served as coating controls for the human and cyno LRRC25 proteins, respectively. […] Anti-LRRC25 antibodies were added (100 ul per well) at 500 nM and serially diluted 3-fold in assay buffer (1% skimmed milk in PBS, pH 7.4). The plate was incubated with gentle agitation for 1 h at room temperature. The plate was washed 3× and HRP-conjugated secondary antibody in assay buffer added [100 ul per well; goat anti-human IgG (Jackson Immunoresearch, cat #715-035-150)], and the plate was incubated as before. Antibody bound to plate-immobilized LRRC25(ECD)-HIS was determined at A450 nm using HRP substrate (3,3′,5,5′-tetramethylbenzidine (TMB); eBioscience; 00-4201-56); 100 μl/well).

[11] = biological target: T11, His-tagged cynomolgus monkey LRRC25 extracellular domain protein, cyno LRRC25-His (cynomolgus monkey); assay: ELISA, plate-immobilized antigen
T11 construct: The entry holds the extracellular domain, a GSG linker and the His tag
T11 sequence (chain, as listed by the source limits assumed): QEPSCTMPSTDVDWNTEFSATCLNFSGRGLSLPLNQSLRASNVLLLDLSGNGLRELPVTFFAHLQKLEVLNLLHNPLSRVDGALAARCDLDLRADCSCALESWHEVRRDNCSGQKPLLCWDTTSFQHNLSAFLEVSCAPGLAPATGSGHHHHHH
Procedure: as §2, §3

[12] = biological target: T12, biotinylated human LRRC25-His protein (human, UniProt Q8N386 21-165, biotinylated (sites not given)); assay: ELISA, 20 nM antibody, biotinylated antigen on streptavidin plate
T12 construct: also called Biotin LRRC25-His; biotinylated LRRC25 protein
T12 sequence (Q8N386 other isoform, or with tags, fused parts or gaps): as the sequence (Q8N386 other isoform, or with tags, fused parts or gaps) above
Procedure: as §1

[13] = biological target: T13, LRRC25(96-115) biotin peptide (human, not fully specified; N-terminal acetyl; C-terminal GGK-Biotin; native Cys changed to Ser); assay: as above
T13 construct: also called Biotin LRRC25 (96-115) peptide
T13 peptide: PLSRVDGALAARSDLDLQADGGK
Procedure: as §1

[14] = biological target: T13, LRRC25(96-115) biotin peptide; assay: peptide ELISA
Procedure: as §1

[15] = biological target: T11, His-tagged cynomolgus monkey LRRC25 …; assay: ELISA, plate-immobilized cyno LRRC25-His
Procedure: as §3

Binder	binding result [1]	binding result [2]	binding result [3]	binding result [4]	binding result [5]	binding result [6]	binding result [7]	binding result [8]	binding result [9]	EC50 [10] [nM]	EC50 [11] [nM]	absorbance (A450) [12] [A450]	absorbance (A450) [13] [A450]	binding result [14]	binding result [15]
anti-LRRC25 chimeric antibody 3E08 (antibody, human IgG4, V domains shown) VH: EVKLLESGGGLVKPGGSLKLSCAASGFTLSSYAMSWVRQTPEKRLEWVASISRSNTTYYPDSVKGRFTISRDNAKNILYLQMSSLRSEDTAMYYCARGVLLRPFASWGQGTLVTVSA VL: DIVMTQDAFSNPVTLGTSASISCRSSKSLLHSNGITYLYWYLQKPGQSPQLLIYQMSNLASGVPDRFSSSGSGTDFTLRISRVEAEDVGVYYCAQNLELPLTFGAGTKLELKR	no binding (tested: 20 nM)	no binding (tested: 20 nM)	no binding (tested: 20 nM)	no binding (tested: 20 nM)	no binding (tested: 20 nM)	no binding (tested: 20 nM)	no binding (tested: 20 nM)	no binding (tested: 20 nM)	no binding (tested: 20 nM)	~1000	–	0.152	0.052	no binding (tested: 20 nM)	no binding (tested: 500 nM)
anti-LRRC25 chimeric antibody 1A01 (antibody, human IgG4, V domains shown, also called mAb 1A01) VH: EVKLLESGGGLVKPGGSLKLSCAASGFTFSSYAMSWVRQTPEKRLEWVASISRGGNTYYPDSVKGRFTISRDNARNILYLQMSSLRSEDTAMYYCARGNYGNSPFAYWGQGTLVTVSA VL: DIVMTQSPASLAVSLGQRATISCRASKSVSTSGYSYMHWYQQKPGQPPKLLIYLASNLESGVPARFSGSGSGTDFTLNIHPVEEEDAATYYCQHSRELPFTFGSGTKLEIKR	no binding (tested: 20 nM)	no binding (tested: 20 nM)	no binding (tested: 20 nM)	no binding (tested: 20 nM)	no binding (tested: 20 nM)	no binding (tested: 20 nM)	no binding (tested: 20 nM)	no binding (tested: 20 nM)	no binding (tested: 20 nM)	4.1	> 500	0.456	2.33	–	–
anti-LRRC25 chimeric antibody 1C10 (antibody, human IgG4, V domains shown) VH: EEKLDESGGGLVKPGGSLKLSCAASGFTFSSYAMSWVRQTPEKRLEWVASISRGGNTYYPDSVKGRFTISRDNARNILYLQMSSLRSEDTAMFYCARGDYGSSLFAYWGQGTLVTVSA VL: DIVMTQAAFSNPVTLGTSASISCRSSKSLLHSNGITYLYWYLQKPGQSPQLLIYQMSNLASGVPDRFSSSGSGTDFTLRISRVEAEDVGVYYCAQNLELPFTFGSGTKLEIKR	no binding (tested: 20 nM)	no binding (tested: 20 nM)	no binding (tested: 20 nM)	no binding (tested: 20 nM)	no binding (tested: 20 nM)	no binding (tested: 20 nM)	no binding (tested: 20 nM)	no binding (tested: 20 nM)	no binding (tested: 20 nM)	73.4	~1000	0.421	0.334	–	–

Binders with a lower EC50 [10], results first:

binding result [1]	binding result [2]	binding result [3]	binding result [4]	binding result [5]	binding result [6]	binding result [7]	binding result [8]	binding result [9]	EC50 [10] [nM]	EC50 [11] [nM]	absorbance (A450) [12] [A450]	absorbance (A450) [13] [A450]	binding result [14]	binding result [15]	Binder
no binding (tested: 20 nM)	no binding (tested: 20 nM)	no binding (tested: 20 nM)	no binding (tested: 20 nM)	no binding (tested: 20 nM)	no binding (tested: 20 nM)	no binding (tested: 20 nM)	no binding (tested: 20 nM)	no binding (tested: 20 nM)	0.58	~500	1.89	2.65	–	–	anti-LRRC25 chimeric antibody 1E11 (antibody, human IgG4, V domains shown) VH: EVQLLETGGGLVKPGGSLKLSCAASGFTFSSSAMSWVRQTPEKRLEWVTSISRGGNTYYPDSVKGRFTISRDNARNILYLQMSSLRSEDTAMYYCARGQELRLFAYWGQGTLVTVSA VL: DIVMTQDAFSNPVTLGTSASISCRSSKSLLHSNGITYLYWYLQKPGQSPQLLIYQMSNLASGVPDRFSSSGSGTDFTLRISRVEAEDVGVYYCAQNLELPFTFGSGTKLEIKR
no binding (tested: 20 nM)	no binding (tested: 20 nM)	no binding (tested: 20 nM)	no binding (tested: 20 nM)	no binding (tested: 20 nM)	no binding (tested: 20 nM)	no binding (tested: 20 nM)	no binding (tested: 20 nM)	no binding (tested: 20 nM)	1.3	42.5	1.88	1.64	–	–	anti-LRRC25 chimeric antibody 1B03 (antibody, human IgG4, V domains shown) VH: EVQLVESGGGLVKPGGSLKLSCAASGFTFSSYAMSWVRQTPEKRLEWVASISRGGNTYYPDSMKGRFTISRDNARNILYLQMSSLRSEDTAMYYCARGQELRLFAYWGQGTLVTVSA VL: QILLTQSPASLAVSLGQRATISCRASESVDSYGNSFMHWYQQKPGQPPKLLIYLASNLESGVPARFSGSGSRTDFTLTIDPVEADDAATYYCQQNNEDPWTFGGGTKLEIKR
